In US20090226442A1 (published 2009):
Read-outs that look alike come from different tables or passages of the source.

Assays:
[1] = target: human RON (recepteur d'origine nantais, MST1R), full length, expressed on cells (UniProt Q04912 25-1400); experiment: FACS
[2] = target: T1, soluble human RON protein (R&D Systems, catalog 1947) (UniProt Q04912 25-571); experiment: ELISA
[3] = target: T1, soluble human RON protein (R&D Systems, …); experiment: ELISA; 4-P fit C
[4] = target: T2, soluble cynomolgus (Macaca fascicularis) RON protein (cynomolgus (Macaca fascicularis), UniProt A0A2K5VT07 25-571); experiment: ELISA; 4-P fit C
T2 chain: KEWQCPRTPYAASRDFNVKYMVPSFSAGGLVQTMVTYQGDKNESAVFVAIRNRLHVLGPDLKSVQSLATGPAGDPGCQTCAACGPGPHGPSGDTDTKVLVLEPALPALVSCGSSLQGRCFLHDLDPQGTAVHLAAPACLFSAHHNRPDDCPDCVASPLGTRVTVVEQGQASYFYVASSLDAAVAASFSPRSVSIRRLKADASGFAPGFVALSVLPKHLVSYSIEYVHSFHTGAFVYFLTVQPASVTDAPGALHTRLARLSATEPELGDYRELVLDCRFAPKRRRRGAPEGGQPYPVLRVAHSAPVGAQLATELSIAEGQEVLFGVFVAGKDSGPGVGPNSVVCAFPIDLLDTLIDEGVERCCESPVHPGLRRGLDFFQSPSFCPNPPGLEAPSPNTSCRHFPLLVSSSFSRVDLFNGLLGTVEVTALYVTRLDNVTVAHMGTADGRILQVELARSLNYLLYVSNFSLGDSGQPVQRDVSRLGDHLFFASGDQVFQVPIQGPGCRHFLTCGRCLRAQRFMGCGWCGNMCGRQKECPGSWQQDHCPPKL

[5] = target: T1, soluble human RON protein (R&D Systems, …); experiment: ELISA; 4-P fit C; remark: listed apart in the source
[6] = target: T2, soluble cynomolgus (Macaca …); experiment: ELISA; 4-P fit C

T1 sequence (Q04912 25-571): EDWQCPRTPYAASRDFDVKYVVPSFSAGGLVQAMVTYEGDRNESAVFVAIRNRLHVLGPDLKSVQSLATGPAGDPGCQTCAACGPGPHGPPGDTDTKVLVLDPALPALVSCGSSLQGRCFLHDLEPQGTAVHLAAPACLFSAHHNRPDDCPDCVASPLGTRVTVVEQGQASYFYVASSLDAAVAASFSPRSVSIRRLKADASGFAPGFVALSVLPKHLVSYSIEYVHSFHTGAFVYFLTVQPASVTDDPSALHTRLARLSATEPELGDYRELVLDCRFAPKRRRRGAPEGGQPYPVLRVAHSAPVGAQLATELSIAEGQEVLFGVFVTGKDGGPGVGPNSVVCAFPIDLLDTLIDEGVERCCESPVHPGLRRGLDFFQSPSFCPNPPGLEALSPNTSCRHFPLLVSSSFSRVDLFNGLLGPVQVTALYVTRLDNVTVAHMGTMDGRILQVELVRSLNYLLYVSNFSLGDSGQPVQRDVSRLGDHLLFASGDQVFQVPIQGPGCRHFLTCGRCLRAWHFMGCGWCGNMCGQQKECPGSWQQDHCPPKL
Chain of human RON (recepteur d'origine nantais, MST1R), full length, expressed on cells (Q04912 25-1400): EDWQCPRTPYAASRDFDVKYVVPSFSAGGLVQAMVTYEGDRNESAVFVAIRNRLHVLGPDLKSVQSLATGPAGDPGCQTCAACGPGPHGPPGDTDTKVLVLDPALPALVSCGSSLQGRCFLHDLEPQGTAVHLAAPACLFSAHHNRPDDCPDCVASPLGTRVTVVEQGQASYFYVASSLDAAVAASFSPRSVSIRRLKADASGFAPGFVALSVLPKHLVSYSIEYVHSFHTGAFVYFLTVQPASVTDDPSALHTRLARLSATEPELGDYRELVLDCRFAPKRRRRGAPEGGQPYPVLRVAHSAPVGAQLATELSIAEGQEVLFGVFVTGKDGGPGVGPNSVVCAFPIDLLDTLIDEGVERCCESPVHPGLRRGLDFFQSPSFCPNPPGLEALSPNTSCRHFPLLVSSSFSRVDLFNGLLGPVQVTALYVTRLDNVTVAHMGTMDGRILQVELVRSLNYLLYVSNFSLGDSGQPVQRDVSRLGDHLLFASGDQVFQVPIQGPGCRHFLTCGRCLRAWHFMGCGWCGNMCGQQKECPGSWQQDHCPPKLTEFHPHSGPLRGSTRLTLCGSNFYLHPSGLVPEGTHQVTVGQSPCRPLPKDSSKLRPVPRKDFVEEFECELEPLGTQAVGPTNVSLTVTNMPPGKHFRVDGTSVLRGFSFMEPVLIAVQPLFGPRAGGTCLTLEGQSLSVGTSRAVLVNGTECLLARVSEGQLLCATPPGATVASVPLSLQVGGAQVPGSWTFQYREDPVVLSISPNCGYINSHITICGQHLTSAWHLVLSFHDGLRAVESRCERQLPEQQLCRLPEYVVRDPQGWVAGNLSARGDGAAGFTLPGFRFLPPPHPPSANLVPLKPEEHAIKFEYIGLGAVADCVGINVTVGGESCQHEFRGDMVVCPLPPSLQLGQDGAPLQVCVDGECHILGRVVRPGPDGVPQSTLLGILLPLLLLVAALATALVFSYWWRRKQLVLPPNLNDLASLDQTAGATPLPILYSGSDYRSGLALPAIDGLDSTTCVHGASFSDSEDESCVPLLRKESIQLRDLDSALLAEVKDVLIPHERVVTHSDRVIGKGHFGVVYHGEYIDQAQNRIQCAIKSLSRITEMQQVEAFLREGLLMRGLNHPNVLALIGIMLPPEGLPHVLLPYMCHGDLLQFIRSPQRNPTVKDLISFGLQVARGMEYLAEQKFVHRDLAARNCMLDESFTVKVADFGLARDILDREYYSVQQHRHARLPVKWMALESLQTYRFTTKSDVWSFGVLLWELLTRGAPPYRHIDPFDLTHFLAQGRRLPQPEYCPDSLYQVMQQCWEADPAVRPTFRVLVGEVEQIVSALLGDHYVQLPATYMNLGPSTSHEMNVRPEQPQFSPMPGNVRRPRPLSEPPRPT

B1: 1P5B10 murine monoclonal anti-RON antibody (antibody, V domains shown)
VH: EVQLQQSGPELVKPGASMKISCRAAGFSFTGYTMNWVKQSHGKSLEWIGLINLNNGGTSHNQKFKGKATLTVDKSSSTAYMELLSLTSEDSAVYYCARWLRRGGYAMDYWGQGISVTVSS
VL: DILLTQSPAILSVSPGERVSFSCRASQNIGTSIHWYQQRTNGSPRLLIKYASESISGIPSRFSGSGSGTDFTLSINSVESEDIADYYCQQSDSWPLTFGAGTKLELK
- EC50 [1]: 0.051 µg/mL
- EC50 [2]: 0.013 µg/mL
- EC50 [3]: 0.001 µg/mL
- EC50 [4]: 0.002 µg/mL

B2: 1P4A12 murine monoclonal anti-RON antibody (antibody, V domains shown)
VH: EVQLQQSGPELVKPGASMKISCKASGYSFTGYTMNWVKQSHGKKLEWIGLINPYNGGTIYNQKFKGKATLTVDKSSSTAYMELLSLTSEDSAVYYCARWLRRGGYAMDYWGQGASVTVSS
VL: DILLTQSPAILSVSPGERVSFSCRASQSIGTSIHWYQQRTNGSPRLLIKFASESISGIPSRFSGSGSGTDFTLSINSVESEDIADYYCQQSDSWPLTFGAGTKLEVK
- EC50 [1]: 0.01 µg/mL
- EC50 [2]: 0.016 µg/mL
- EC50 [3]: 0.002 µg/mL
- EC50 [4]: 0.005 µg/mL

B3: 1P2E7 murine monoclonal anti-RON antibody (antibody, V domains shown)
VH: DVQLQESGPGLVKPSQSLSLTCTVTGDSITSDYAWNWIRQFPGNKLEWMGYISYSGSTSYNPSLKSRFSITRDTSKNQFFLQLNSVTTEDSATYYCARGGFYYRYAGPGFAYWGQGTLVTVSA
VL: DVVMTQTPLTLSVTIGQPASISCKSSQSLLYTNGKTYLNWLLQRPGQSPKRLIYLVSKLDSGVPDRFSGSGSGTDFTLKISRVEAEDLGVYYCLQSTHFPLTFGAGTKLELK
- EC50 [1]: 0.013 µg/mL
- EC50 [2]: 0.018 µg/mL
- EC50 [3]: 0.000736 µg/mL
- EC50 [4]: 0.002 µg/mL

B4: human macrophage stimulating protein (MSP) (R&D Systems cat. #4306-MS) (ligand)
chain: QRSPLNDFQVLRGTELQHLLHAVVPGPWQEDVADAEECAGRCGPLMDCRAFHYNVSSHGCQLLPWTQHSPHTRLRRSGRCDLFQKKDYVRTCIMNNGVGYRGTMATTVGGLPCQAWSHKFPNDHKYTPTLRNGLEENFCRNPDGDPGGPWCYTTDPAVRFQSCGIKSCREAACVWCNGEEYRGAVDRTESGRECQRWDLQHPHQHPFEPGKFLDQGLDDNYCRNPDGSERPWCYTTDPQIEREFCDLPRCGSEAQPRQEATTVSCFRGKGEGYRGTANTTTAGVPCQRWDAQIPHQHRFTPEKYACKDLRENFCRNPDGSEAPWCFTLRPGMRAAFCYQIRRCTDDVRPQDCYHGAGEQYRGTVSKTRKGVQCQRWSAETPHKPQFTFTSEPHAQLEENFCRNPDGDSHGPWCYTMDPRTPFDYCALRRCADDQPPSILDPPDQVQFEKCGKRVDRLDQRRSKLRVVGGHPGNSPWTVSLRNRQGQHFCGGSLVKEQWILTARQCFSSCHMPLTGYEVWLGTLFQNPQHGEPSLQRVPVAKMVCGPSGSQLVLLKLERSVTLNQRVALICLPPEWYVVPPGTKCEIAGWGETKGTGNDTVLNVALLNVISNQECNIKHRGRVRESEMCTEGLLAPVGACEGDYGGPLACFTHNCWVLEGIIIPNRVCARSRWPAVFTRVSVFVDWIHKVMRLG
- EC50 [5]: 0.03 µg/mL
- EC50 [6]: 0.038 µg/mL

B5: 1P3B2 murine monoclonal anti-RON antibody (antibody, V domains shown)
VH: EVQLQQSGPELEKPGASVKISCKASGYSFTGYNMNWVKQSNGESLEWIGDIDPYYGGTRYNQKFKGKATLTVDKSSSTAYMQLKSLTSEDSAVYYCAREGRGFAYWGQGTLVTVSA
VL: DIQMTQSPASLSASVGETVTITCRASENIYSYLAWYQKKQGKSPQLLVYNAKTSVEGVPSRFSGSGSGIQFSLKINSLQPEDFGSYYCHCQHHYGTLPTFGGGTKLEIK
- EC50 [1]: 0.006 µg/mL
- EC50 [2]: 0.011 µg/mL
- EC50 [4]: 0.01 µg/mL

B6: 1P4A3 murine monoclonal anti-RON antibody (antibody, V domains shown)
VH: EVQLQQSGPELEKPGASVMISCKASGYSFTGYNMNWVKQSTGKSLEWIGDIDPYYDGTRYNQKFKGKATLTADKSSSTAYMQLKSLTSEDSAVYYCTREGRGFAYWGQGTLVTVSA
VL: DIQMTQSPASLSASVGETVTITCRASENIYSYLAWYQQKQGKSPQLLVYNAKTLAGGVPSRFSGSGSGTQFSLKINSLQPEDFGSYYCQHYYGTPLTFGAGTKLELK
- EC50 [1]: 0.011 µg/mL
- EC50 [2]: 0.018 µg/mL
- EC50 [3]: 0.003 µg/mL
- EC50 [4]: 0.003 µg/mL
